Reference: PMC3963969

Biological target: Rad4/Cut5 (UniProt P32372)
Experiment: anti-HA IP of Rad9, anti-Rad4 blot
Conditions: reference: wild-type Rad9; sites T412

binding against the reference: lost
Substance: Rad9 (from UniProt P26306) Rad9-T412A
